Results on 13 molecules are retold here after patent publication US8835119B2, “Lectin pathway deficiency assay” (Euro Diagnostica AB, priority 2002, dated 2014).

In assay [1] the test system is alternative pathway (AP) of complement. As to conditions: NHS in calcium-free buffer (GVB/MgEGTA).
Procedure: As a ligand for AP activation, LPS was coated at 10 μg/ml. LPS from Salmonella typhosa was obtained from Sigma (L-6386), dissolved in PBS at 1.6 mg/ml and stored at −20° C. Plates were blocked by using 1% BSA in PBS. Serum samples were diluted in GVB/MgEGTA (VBS containing 10 mM EGTA, 5 mM MgCl2, 0.05% Tween-20, and 0.1% gelatin; pH 7.5) and incubated in the plate for 1 hour at 37° C. Complement binding was assessed by using dig-conjugated mAb directed against C4 and C3 followed by the detection of mAb binding by using HRP-conjugated sheep anti-dig antibodies.
In order to enable the detection of all complement activation pathways in one assay system, the activation of the alternative pathway in an ELISA system was also studied. […] Therefore, a calcium-free buffer was used, thus excluding involvement of the CP and the LP.
The target in assay [2] is T1, C1q (Homo sapiens, UniProt P02745+P02746+P02747). As to conditions: cited from earlier work.
In assay [3] the test system is classical complement pathway. As to conditions: several in vitro assays; cited from earlier work.
In assay [4] the target is T1, C1q. Also on record: Human C1q was isolated from human donor plasma exactly as described previously; from tissue; host or cells: human donor plasma. As to conditions: cited from earlier work.
Assay [5] concerns the target T1, C1q. Also on record: Human C1q was isolated from human donor plasma exactly as described previously; from tissue; host or cells: human donor plasma. As to conditions: cited from earlier work. This is another data set of the same source.
In assay [6] the test system is classical pathway (CP) of complement. The assay can be described thus: Classical pathway ELISA: complement activation by NHS on immobilized IgM. The assay is classed as biochemical, human. As to conditions: FIG. 3C; C1q-depleted NHS 1/400, purified C1q 0.5 μg/ml. How it is done:
Anti-C1q antibodies were tested for their ability to inhibit the CP of complement by using immobilized IgM as a specific activator of the CP. […] These antibodies were tested for their effect on complement activation induced by immobilized mannan.
As a ligand for CP activation, human IgM was coated at 2 μg/ml. After blocking of residual binding sites, serum samples, diluted in GVB++, were added to the plate and incubated for 1 hour at 37° C.
The complement activation cascade was further studied by using mAb to detect binding of specific complement components upon their activation via the CP and the LP, respectively. […] Therefore, addition of mAb 2004 to serum allows the specific detection of LP activation by using mannan as ligand without any interference of the CP.

For assay [7], the system named is lectin pathway (LP) of complement. As to the kind of experiment: Lectin pathway ELISA: complement activation by NHS on immobilized mannan. As to conditions: FIG. 3C; C1q-depleted NHS 1/400, purified C1q 0.5 μg/ml. The assay is classed as biochemical, human. The method, then: Functional activity of the lectin pathway was assessed with ELISA by using immobilized mannan as a ligand. Mannan was obtained from Sigma from Saccharomyces cerevisiae; M7504), dissolved in PBS (10 mg/ml) and stored at −20° C. Nunc Maxisorb plates (Nunc, Roskilde, Denmark) were coated with mannan (100 μg/ml) in coating buffer (100 mM Na2CO3/NaHCO3, pH 9.6) for 16 hours at room temperature or for 2 hours at 37° C. After each step, the plates were washed three times with PBS containing 0.05% Tween 20. Residual binding sites were blocked by incubation for one hour at 37° C. with PBS containing 1% BSA. […] This mixture was pre-incubated for 15 minutes on ice, before addition to the plates. […] Complement binding was detected by using mouse mAb conjugated to digoxygenin (dig) by using digoxygenin-3-O-methylcarbonyl-ε-aminocaproic acid-N-hydroxysuccinimide ester (from Boehringer Mannheim, Mannheim, Germany) according to instructions provided by the manufacturer. […] Binding of mAb was detected by using dig-conjugated sheep anti-mouse antibodies (Fab fragments) followed by HRP-conjugated sheep anti-dig antibodies (Fab fragments, both from Boehringer Mannheim). […] Enzyme activity of HRP was detected following incubation at room temperature for 30-60 min with 2,2′-azino-bis(3-ethylbenzthiazoline-6-sulfonic acid) (from Sigma; 2.5 mg/ml in 0.1 M citrate/Na2HPO4 buffer, pH 4.2) in the presence of 0.01% H2O2. […]

The target of assay [8] is T1, C1q. The assay can be described thus: C1q-dependent hemolytic assay. The assay is classed as cell-based. Set-up: Human C1q was isolated from human donor plasma exactly as described previously; from tissue; host or cells: human donor plasma. The method, then: (Roos A., et al., J. Immunol. 167, 7052-7059, 2001).
For the preparation of C1q-depleted serum, undiluted normal human EDTA plasma (obtained from a donor with the MBL/AA genotype) was applied on column consisting of Biogel A5 (from Biorad) coupled to rabbit IgG anti-human C1q. The column was washed by using Veronal-buffered saline (VBS; 1.8 mM Na-5,5-diethylbarbital, 0.2 mM 5,5-diethylbarbituric acid, 145 mM NaCl) containing 10 mM EDTA. Fractions were tested in a C1q-dependent hemolytic assay in the absence or presence of purified C1q. […] After recalcification, C1q-depleted serum was stored at −80° C.

T1 sequence (P02745 23-245): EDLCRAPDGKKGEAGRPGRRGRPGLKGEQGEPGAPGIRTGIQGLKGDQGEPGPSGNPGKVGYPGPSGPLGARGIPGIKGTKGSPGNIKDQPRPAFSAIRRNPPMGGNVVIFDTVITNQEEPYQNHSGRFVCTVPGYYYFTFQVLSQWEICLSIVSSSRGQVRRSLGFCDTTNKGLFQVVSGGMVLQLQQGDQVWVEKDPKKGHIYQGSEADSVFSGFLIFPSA
T1 sequence (P02746 28-253): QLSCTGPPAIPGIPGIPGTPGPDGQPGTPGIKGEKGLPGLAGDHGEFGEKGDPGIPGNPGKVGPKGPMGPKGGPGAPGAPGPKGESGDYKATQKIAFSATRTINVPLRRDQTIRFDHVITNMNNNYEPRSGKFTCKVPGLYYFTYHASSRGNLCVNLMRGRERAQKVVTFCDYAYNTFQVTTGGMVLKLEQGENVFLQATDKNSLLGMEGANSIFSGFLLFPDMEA
T1 sequence (P02747 29-245): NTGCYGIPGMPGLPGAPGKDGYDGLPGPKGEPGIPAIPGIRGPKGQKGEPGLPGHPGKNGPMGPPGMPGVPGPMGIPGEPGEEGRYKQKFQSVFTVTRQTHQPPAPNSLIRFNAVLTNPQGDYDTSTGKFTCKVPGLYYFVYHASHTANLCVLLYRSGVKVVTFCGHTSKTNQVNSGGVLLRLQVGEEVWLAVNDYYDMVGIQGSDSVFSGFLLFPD

In the case of `O=C(O)CN(CCN(CC(=O)O)CC(=O)O)CC(=O)O` [EDTA], the “Detection of C3 when present in the complement source” value in assay [1] was “reduced until background levels”.

Regarding AEAKAKA, the “Mechanism of C1 inhibition” value in the assay with C1q [2] is on record as “Inhibits C1q ligand binding”. Also, the “Inhibition of activation of the classical complement pathway” value in assay [3] is recorded as “able to inhibit”.

As to “C1 inhibitor: plasma serine protease inhibitor”, the “Mechanism of C1 inhibition” value in the assay with C1q [2] is “Inhibits C1r and C1s activity”.

For the molecule CEGPFGPRHDLTFCW [Peptide 2J], the “Mechanism of C1 inhibition” value in the assay with C1q [2] is “Binds C1q head, inhibits”. The “Inhibition of C1q-dependent hemolysis / C1q hemolytic function” value with C1q [4] is “strong inhibitor”. In addition, the “Inhibition of binding of C1q to IgG” value in the assay with C1q [5] was “inhibits”.

Take KDIRCKDD: the “Mechanism of C1 inhibition” value with C1q [2] is given as “Inhibits C1q ligand binding”.

In the case of LEQGENVFLQATLL [Peptide CBP2], the “Mechanism of C1 inhibition” value in the assay with C1q [2] is “Acts as a competitor for C1q”.

“Surfactant protein A: collectin present in the lung”: the “Mechanism of C1 inhibition” value with C1q [2] is recorded as “Inhibits C1q ligand binding”.

On to VQVHNAKTKPR, for which the “Inhibition of activation of the classical complement pathway” value in assay [3] is “able to inhibit”.

human neutrophil peptide-1 [HNP-1]: the “Mechanism of C1 inhibition” value with C1q [2] is “Binds C1q tail and inhibits”.

Regarding “purified C1q: human C1q isolated from human donor plasma”, the “C4 activation by IgM after reconstitution of C1q-depleted serum” value in assay [6] is “complete restoration”. In addition, in assay [7], the “C4 activation by mannan after addition to C1q-depleted serum” value is recorded as “slightly inhibited”. Further, the “Restoration of lysis of antibody-coated erythrocytes induced by C1q-depleted human serum” value with C1q [8] is on record as “completely restore”.

B1: Decorin: dermatan sulfate proteoglycan, a constituent of the extracellular matrix (protein, UniProt P07585 31-359, looked up)
Decorin: DEASGIGPEVPDDRDFEPSLGPVCPFRCQCHLRVVQCSDLGLDKVPKDLPPDTTLLDLQNNKITEIKDGDFKNLKNLHALILVNNKISKVSPGAFTPLVKLERLYLSKNQLKELPEKMPKTLQELRAHENEITKVRKVTFNGLNQMIVIELGTNPLKSSGIENGAFQGMKKLSYIRIADTNITSIPQGLPPSLTELHLDGNKISRVDAASLKGLNNLAKLGLSFNSISAVDNGSLANTPHLRELHLDNNKLTRVPGGLAEHKYIQVVYLHNNNISVVGSSDFCPPGHNTKKASYSGVSLFSNPVQYWEIQPSTFRCVYVRSAIQLGNYK
Consider B1, for which, in the assay with C1q [2], the “Mechanism of C1 inhibition” value is “Binds to C1q head”.

B2: Calreticulin (protein, UniProt P27797 18-417, looked up)
Calreticulin: EPAVYFKEQFLDGDGWTSRWIESKHKSDFGKFVLSSGKFYGDEEKDKGLQTSQDARFYALSASFEPFSNKGQTLVVQFTVKHEQNIDCGGGYVKLFPNSLDQTDMHGDSEYNIMFGPDICGPGTKKVHVIFNYKGKNVLINKDIRCKDDEFTHLYTLIVRPDNTYEVKIDNSQVESGSLEDDWDFLPPKKIKDPDASKPEDWDERAKIDDPTDSKPEDWDKPEHIPDPDAKKPEDWDEEMDGEWEPPVIQNPEYKGEWKPRQIDNPDYKGTWIHPEIDNPEYSPDPSIYAYDNFGVLGLDLWQVKSGTIFDNFLITNDEAYAEEFGNETWGVTKAAEKQMKDKQDEEQRLKEEEEDKKRKEEEEAEDKEDDEDKDEDEEDEEDKEEDEEEDVPGQAKDEL
B2: the “Inhibition of C1q-dependent hemolysis / C1q hemolytic function” value in the assay with C1q [4] was “inhibit”.

B3: gC1qR: globular C1q receptor, binds specifically to the globular head of C1q (protein, UniProt Q07021 74-282, looked up)
Complement component 1 Q …: LHTDGDKAFVDFLSDEIKEERKIQKHKTLPKMSGGWELELNGTEAKLVRKVAGEKITVTFNINNSIPPTFDGEEEPSQGQKVEEQEPELTSTPNFVVEVIKNDDGKKALVLDCHYPEDEVGQEDEAESDIFSIREVSFQSTGESEWKDTNYTLNTDSLDWALYDHLMDFLADRGVDNTFADELVELSTALEHQEYITFLEDLKSFVKSQ
Regarding B3, the “Mechanism of C1 inhibition” value with C1q [2] is given as “Binds C1q head”.
